In patent US20220153875A1, “ANTIGEN-BINDING MOLECULE CONTAINING ANTIGEN-BINDING DOMAIN OF WHICH BINDING ACTIVITY TO ANTIGEN IS CHANGED DEPENDING ON MTA, AND LIBRARY FOR OBTAINING SAID ANTIGEN-BINDING DOMAIN” (Chugai Seiyaku Kabushiki Kaisha, priority 2019, published 2022):

What was measured:
[1] = Biacore T200: rabbit B cell cloning antibodies, binding to SAH; conditions: Biacore T200, 25° C.; read-out: Affinity KD, SAH
Description: (§1) The antibody of interest was captured on Sensor Chip Protein A (GE healthcare) with protein A pre-immobilized, or on an immobilized surface prepared by binding onto Streptavidin-immobilized Sensor chip SA (GE Healthcare) the Capture Select Biotin Anti-IgG-Fc (Hu) (Thermo fisher scientific), which is a biotinylated anti-human IgG CH1 molecule, and interacted with MTA (Sigma-Aldrich) or MTA analogs. As MTA analogs, adenosine (Wako) (measured concentration in tumor tissue: 182 nM) and S-(5′-adenosyl)-L-homocysteine, (SAH) (Sigma-Aldrich) (measured concentration in tumor tissue: 30 nM) were selected based on the structural similarity to MTA and the concentration in tumor tissue of tumor-bearing mice of an MTAP-deficient cell line. 20 mM ACES-NaOH, 150 mM NaCl, 0.05% Tween20, 0.05% DMSO was used as the running buffer. MTA or adenosine or SAH was allowed to interact at a flow rate of 30 μL/min for 120 seconds and then dissociated in the running buffer. The interaction was measured at 25° C. and the same buffer as the running buffer was used to dilute MTA and its analogs.
(§2) The dissociation constant […]) (M) was calculated based on the binding rate constant ka (1/Ms) and the dissociation rate constant kd (1/s), which are kinetic parameters calculated from the sensorgrams obtained by the measurement. Alternatively, the dissociation constant KD (M) was calculated using steady state analysis. […]

[2] = Biacore T200: rabbit B cell cloning antibodies, binding to MTA; conditions: Biacore T200, 25° C.; read-out: Affinity KD, MTA
Description: as §1, §2

[3] = Biacore T200: rabbit B cell cloning antibodies, binding to adenosine; conditions: Biacore T200, 25° C.; read-out: Affinity KD, Adenosine
Description: as §1, §2

[4] = Surface plasmon resonance: humanized MTA0303 and humanized MTA0330, binding to MTA; conditions: humanized antibodies; 25° C.; read-out: Affinity KD, MTA
Source text: (§3) […] (GE Healthcare) was used to analyze binding to MTA and MTA analogs (adenosine, SAH) to verify whether humanized MTA0303 and humanized MTA0330 specifically bind to MTA.
as §1, with “(Sigma-Aldrich),” for “(Sigma-Aldrich)”, “or” for “or MTA analogs. As MTA analogs,”, “(Wako), or” for “(Wako) (measured concentration in tumor tissue: 182 nM) and”, “(Sigma-Aldrich).” for “(Sigma-Aldrich) (measured concentration in tumor tissue: 30 nM) were selected based on the structural similarity to MTA and the concentration in tumor tissue of tumor-bearing mice of an MTAP-deficient cell line.”, “MTA, or adenosine, or SAH.” for “MTA and its analogs.”
(§4) The dissociation constant KD (M) was calculated based on the binding rate constant ka (1/Ms) and the dissociation rate constant kd (1/s), which are kinetic parameters calculated from the sensorgrams obtained by the measurement. Alternatively, the dissociation constant KD (M) was calculated using steady state analysis. Biacore 1200 Evaluation Software (GE Healthcare) was used to calculate each parameter.

[5] = Surface plasmon resonance: humanized MTA0303 and humanized MTA0330, binding to SAH; conditions: humanized antibodies; 25° C.; read-out: Affinity KD, SAH
Source text: as §3
as §1, with “(Sigma-Aldrich),” for “(Sigma-Aldrich)”, “or” for “or MTA analogs. As MTA analogs,”, “(Wako), or” for “(Wako) (measured concentration in tumor tissue: 182 nM) and”, “(Sigma-Aldrich).” for “(Sigma-Aldrich) (measured concentration in tumor tissue: 30 nM) were selected based on the structural similarity to MTA and the concentration in tumor tissue of tumor-bearing mice of an MTAP-deficient cell line.”, “MTA, or adenosine, or SAH.” for “MTA and its analogs.”
as §4

[6] = Surface plasmon resonance: humanized MTA0303 and humanized MTA0330, binding to adenosine; conditions: humanized antibodies; 25° C.; read-out: Affinity KD, Adenosine
Source text: as §3
as §1, with “(Sigma-Aldrich),” for “(Sigma-Aldrich)”, “or” for “or MTA analogs. As MTA analogs,”, “(Wako), or” for “(Wako) (measured concentration in tumor tissue: 182 nM) and”, “(Sigma-Aldrich).” for “(Sigma-Aldrich) (measured concentration in tumor tissue: 30 nM) were selected based on the structural similarity to MTA and the concentration in tumor tissue of tumor-bearing mice of an MTAP-deficient cell line.”, “MTA, or adenosine, or SAH.” for “MTA and its analogs.”
as §4

hIL-6R [7] = molecular target: T1, hIL-6R (Homo sapiens, UniProt P08887); assay: Surface plasmon resonance (Biacore T200): C03H-BH076N17/C03L-KT0 binding to hIL-6R under MTA or adenosine
T1 sequence (P08887 20-357): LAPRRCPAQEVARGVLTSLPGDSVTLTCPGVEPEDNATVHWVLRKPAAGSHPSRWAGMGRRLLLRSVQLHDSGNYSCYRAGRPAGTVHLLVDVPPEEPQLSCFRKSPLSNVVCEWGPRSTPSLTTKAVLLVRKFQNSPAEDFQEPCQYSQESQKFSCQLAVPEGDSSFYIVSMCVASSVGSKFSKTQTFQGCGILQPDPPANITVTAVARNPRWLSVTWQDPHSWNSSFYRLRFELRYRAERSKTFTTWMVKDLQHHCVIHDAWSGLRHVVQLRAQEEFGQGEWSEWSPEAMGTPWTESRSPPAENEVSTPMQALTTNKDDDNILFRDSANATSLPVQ
Description: Using Biacore T200 (GE Healthcare), the effects of MTA and adenosine on the antigen-antibody reaction between C03H-BH076N17/C03L-KT0 and hIL-6R were evaluated. TBS, 0.02% (w/v) Tween20, pH 7.4 was used as the running buffer. ProA/G (Pierce) was immobilized onto Sensor Chip CM5 (GE Healthcare) by amine coupling, and after the antibody was immobilized on it, various antigens were allowed to interact as analytes, to observe changes in the antigen-antibody binding amount. The running buffer and a buffer in which either MTA or adenosine was added to the running buffer were used for antigen dilution, which were prepared in a series of stepwise concentrations. Biacore T200 Evaluation Software (GE Healthcare) was used to calculate the parameters.

hIL-6R [8] = molecular target: T1, hIL-6R; assay: Biacore T200: hIL-6R binding amount at different MTA concentrations; conditions: MTA 0.1, 1, 10, 100 μM, 25° C.
Description: For the MTA-dependently binding anti-hIL-6R antibody cloned in Example (4-5) (6RS2T007H-F760mnN17/6RS2T007L-KT0), the change in the amount of antigen binding dependent on MTA concentration was assessed using Biacore T200 (GE Healthcare). The measurement was done at 25° C., using 20 mM ACES added with MTA at final concentrations of 0.1, 1, 10, and 100 μM, 150 mM NaCl, 0.05% (w/v) Tween20, pH 7.4 as the running buffer Series S Sensor Chip CM4 was used as the sensor chip, ProA/G was immobilized by amine coupling with the antibody mobilised on the top of that, after which hIL-6R was allowed to interact as an analyte to measure the change in binding amount between antigen-antibody. The running buffer was used to dilute the antigen.

[9] = Biacore T200: binding of humanized SMB0002 to adenosine; conditions: 37° C.; read-out: Affinity KD, Adenosine
Description: (§5) CaptureSelect™ Biotin Anti-IgG-CH1 Conjugate (Thermo fisher scientific), which is a biotinylated anti-human IgG CH1 molecule, was bound to Sensor Chip SA (GE Healthcare) onto which streptavidin was immobilized in advance, then humanized SMB0002 was allowed to be captured, and MTA (Sigma-Aldrich) or adenosine (Wako) was allowed to interact with humanized SMB0002. 50 mM Tris-HCl, 150 mM NaCl (Takara, T903), 0.02% (w/v) Tween20, 5% DMSO was used as the running buffer. MTA or adenosine was allowed to interact with humanized SMB0002 for 42 seconds at a flow rate of 100 μL/min and then dissociated from the antibody in the running buffer. The interaction was measured at 37° C., and the same buffer as the running buffer was used to dilute MTA or adenosine.
as §4, with “T200” for “1200”

[10] = Biacore T200: binding of humanized SMB0002 to MTA; conditions: 37° C.; read-out: Affinity KD, MTA
Description: as §5
as §4, with “T200” for “1200”

B1: MTA0303: anti-MTA antibody from rabbit B cell cloning; H-chain variable region SEQ ID NO: 46, L-chain SEQ ID NO: 47 (antibody, V domains shown)
VH: QSLEESGGDLVKPGASLTLTCTASGFSFSSAYWMCWVRQAPGKGLEWTACIFASAIYAGSGGSTYYASWAKGRFTISKTSSTTVTLQMTSLTAADTATYFCATGYGSSGGGFDELWGPGTLVTVSS
VL: AQVLTQTASSVSAAVGGTVTISCQSSESVYANRLSWYQQKPGQPPKLLIYSASTLPSGVPSRFKGSGSGTQFTLTISDLECDDVGTYYCAGLYSGNIPAFGGGTEVVVK
- Kd [1]: 119 µM
- Kd [2]: 0.00246 µM
- Kd [3]: 11.4 µM

B2: MTA0330: anti-MTA antibody from rabbit B cell cloning; H-chain variable region SEQ ID NO: 48, L-chain SEQ ID NO: 49 (antibody, V domains shown)
VH: QEQLVESGGDLVTPGASLTLTCKASGFSFSSSYWMCWVRQAPGKGLEWIACIYSGDGSTYYASWVNGRFTISKTSSTTVTLQMTSLTAADTATYFCARENIFGSGALNLWGPGTLVTVSS
VL: QAVVTQTPSPVSAAVGGTVTISCHSSKSVYSNNRLAWYQQKPGQPPKLLIYQASTLASGVASRFSGSGSGTQFTLTISGVQCDDAATYYCQGTYYSSGFYFAFGGGTEVVVK
- Kd [1]: 187 µM
- Kd [2]: 0.0144 µM
- Kd [3]: 63.5 µM

B3: HumanizedMTA0330 (antibody, V domains shown)
VH: QVQLVESGGGLVQPGGSLRLSCSASGFTFSSSYWMCWVRQAPGKGLEWVGCIYSGDGSTYYASWVNGRLTISKDTSKSQVVLTMTNMDPVDTATYYCARENIFGSGALNLWGQGTLVTVSS
VL: DIQVTQSPSSLSASVGDRVTITCHSSKSVYSNNRLAWYQQKPGQPPKLLIYQASTLASGVPSRFSGSGSGTEFTLTISSLQPDDFATYYCQGTYYSSGFYFAFGQGTKVEIK
- Kd [4]: 0.00888 µM
- Kd [5]: 84.7 µM
- Kd [6]: 44.8 µM

B4: HumanizedMTA0303 (antibody, V domains shown)
VH: QVQLVESGGGLVKPGGSLRLSCAASGFTFSSAYWMCWVRQAPGKGLEWVACIFASAIYAGSGGSTYYASWAKGRLTISKDTSKNQVVLTMTNMDPVDTATYYCATGYGSSGGGFDELWGQGTLVTVSS
VL: EIVLTQSPATLSLSPGERATLSCQSSESVYANRLSWYQQKPGQPPKLLIYSASTLPSGIPARFSGSGSGTDFTLTISRLEPEDFAVYYCAGLYSGNIPAFGQGTKVEIK
- Kd [4]: 0.0108 µM
- Kd [5]: 211 µM
- Kd [6]: 41.4 µM

B5: C03H-BH076N17/C03L-KT0: antibody binding hIL-6R MTA-dependently; heavy chain variable region SEQ ID NO: 54, light chain variable region SEQ ID NO: 55 (antibody, V domains shown)
VH: QVQLVQSGAEVKKPGSSVKVSCKASGGTFSSYAISWVRQAPGQGLEWMGGIIPIFGTANYAQKFQGRVTITADESTSTAYMELSSLRSEDTAVYYCARFHVMSSFEIWGQGTLVTVSS
VL: DIQMTQSPSSLSASVGDRVTITCRASQSISSYLNWYQQKPGKAPKLLIYAASSLQSGVPSRFSGSGSGTDFTLTISSLQPEDFATYYCLQFNNDPLTFGGGTKVEIK
- amount of binding to hIL-6R (hIL-6R [7]; different concentrations of MTA): showed stronger binding activity to hIL-6R as MTA concentration increased
- amount of binding to hIL-6R (hIL-6R [7]; different concentrations of adenosine): no binding to hIL-6R was observed at any concentration

B6: 6RS2T007H-F760mnN17/6RS2T007L-KT0: MTA-dependent anti-hIL-6R antibody; H-chain variable region SEQ ID NO: 57, L-chain variable region SEQ ID NO: 58 (antibody, V domains shown)
VH: QVQLVQSGAEVKKPGASVKVSCKVSNIVLMQHTYGWVRQPPGKGLEWIGIIGGDGHAWYPRWVKGRFTISKDNSKNQVVLTMTNMDPVDTATYYCARGGKDGFTNAWDPWGQGTLVTVSS
VL: DIQLTQSPSSLSASVGDRVTITCQSSQSVFNNNGLSWYQQKPGQPPKLLIYDASTLASGVPSRFSGSGSGTDFTLTINSLEAEDAATYYCHGSQATQIWWDNAFGGGTEVVVK
- amount of antigen (hIL-6R) binding (hIL-6R [8]): changes stepwise according to the MTA concentration

B7: Humanized SMB0002: adenosine-binding antibody, library template; heavy chain variable region SEQ ID NO: 31, light chain variable region SEQ ID NO: 32 (antibody, V domains shown)
VH: QVQLVQSGAEVKKPGASVKVSCKVSGIDLTNYAMGWVRQPPGKGLEWIGIIGADSSTWYPSWVKGRFTISKDTSKNQVVLTMTNMDPVDTATYYCARGRFVGYTNAFDPWGQGTLVTVSS
VL: DIQLTQSPSSLSASVGDRVTITCQSSQSVWNNNYLSWYQQKPGQPPKLLIYDASTLASGVPSRFSGSGSGTDFTLTINSLEAEDAATYYCHGSYANSGWYDNAFGGGTEVVVK
- Kd [9]: 0.064 µM
- Kd [10]: 3.8 µM
